Test results taken from US20020012949A1, “Assay systems for leptin-enhancing agents” (priority 1997, published 2002).

Molecular target: T1, OB-R (Homo sapiens, UniProt P48357)
T1 construct: The cytoplasmic domain and full-length human OB-R was cloned by PCR; expressed in transfected cells; host or cells: COS-7
T1 sequence (P48357 22-1165): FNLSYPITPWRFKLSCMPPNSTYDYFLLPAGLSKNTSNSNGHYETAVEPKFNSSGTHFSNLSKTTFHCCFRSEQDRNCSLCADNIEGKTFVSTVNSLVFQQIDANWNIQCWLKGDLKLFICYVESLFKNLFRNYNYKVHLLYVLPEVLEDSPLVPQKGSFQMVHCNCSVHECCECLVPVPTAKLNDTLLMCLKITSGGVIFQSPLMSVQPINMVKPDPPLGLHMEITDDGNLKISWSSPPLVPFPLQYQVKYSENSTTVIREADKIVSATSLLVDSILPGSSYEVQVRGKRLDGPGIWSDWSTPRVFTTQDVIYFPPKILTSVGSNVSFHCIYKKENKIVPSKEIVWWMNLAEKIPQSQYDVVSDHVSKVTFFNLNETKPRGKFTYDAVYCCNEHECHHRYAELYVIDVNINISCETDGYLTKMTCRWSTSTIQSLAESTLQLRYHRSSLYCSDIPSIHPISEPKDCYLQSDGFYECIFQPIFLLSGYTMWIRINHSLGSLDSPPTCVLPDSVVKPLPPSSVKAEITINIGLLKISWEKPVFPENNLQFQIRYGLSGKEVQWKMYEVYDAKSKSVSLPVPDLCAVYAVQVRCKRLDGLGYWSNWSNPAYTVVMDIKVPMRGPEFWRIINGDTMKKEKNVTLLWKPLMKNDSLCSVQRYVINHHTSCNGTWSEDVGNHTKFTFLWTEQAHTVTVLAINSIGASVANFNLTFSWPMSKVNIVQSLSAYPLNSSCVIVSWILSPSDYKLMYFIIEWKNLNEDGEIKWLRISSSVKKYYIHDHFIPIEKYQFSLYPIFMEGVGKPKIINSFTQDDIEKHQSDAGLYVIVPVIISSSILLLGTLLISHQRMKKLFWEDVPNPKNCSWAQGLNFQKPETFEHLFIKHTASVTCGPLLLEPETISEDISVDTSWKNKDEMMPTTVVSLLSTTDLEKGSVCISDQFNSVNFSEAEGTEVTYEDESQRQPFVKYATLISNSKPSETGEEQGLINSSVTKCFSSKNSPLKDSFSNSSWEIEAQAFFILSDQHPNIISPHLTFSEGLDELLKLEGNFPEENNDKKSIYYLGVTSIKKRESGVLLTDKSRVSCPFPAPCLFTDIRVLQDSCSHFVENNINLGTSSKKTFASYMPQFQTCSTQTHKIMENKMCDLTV
Test: Immunoprecipitation and western blotting of tyrosine phosphorylation, leptin-stimulated COS cells expressing OB-R
Format: cell-based
Conditions: 100 ng/ml human leptin for 10 min
Procedure: The cytoplasmic domain and full-length human OB-R was cloned by PCR using human fetal liver and adipocyte cDNA (Clontech) and cloned into the expression vectors pCMX and pMT21. Chimeric receptors were constructed by fusing the extracellular domain and transmembrane domain of TrkC (amino acids 1 to 458) to the cytoplasmic domain of OB-R (amino acids 865-1165). A triple myc epitope tag was added at the C-terminus of all OB-R constructs (18). Truncation and point mutant constructs were generated by PCR and the sequences of all constructs were verified. Expression constructs were transfected into COS-7 cells using lipofectamine (GIBCO-BRL); 36-48 hours after transfection, cells were starved for either 2 hour,s for chimeric receptors or overnight for full-length receptors prior to stimulation.
Cells were stimulated with 50 ng/ml of human NT-3 for 15 min or 100 ng/ml of human leptin (R&D Systems) for 10 min. Cells were then lysed in a 1% Brij 96 buffer and receptor was immunoprecipitated with anti-myc antibody 9E10 (18) followed by protein G-sepharose (Pharmacia). Unbound lysate was then immunoprecipitated with anti-P-Tyr antibody (UBI, Lake Placid) or agarose-conjugated anti-SHP-2 antibody (Santa Cruz Biotechnology). […] Endogenous STAT3, SHP-2, Jak1 and Jak2 is being detected in all immunoblotting experiments. […]

leptin: the product of the obese gene, secreted by adipocytes; ligand of OB-R
tyrosine phosphorylation of receptor, STAT3 and SHP-2: results in phosphorylation of the receptor, STAT3 and SHP-2
